# Data from publication PMC9571070, “Three-Fluorophore FRET Enables the Analysis of Ternary Protein Association in Living Plant Cells” (Plants, 2022).
# T1: Receptor-Like Protein 44 fused to monomeric Turquoise 2 (RLP44-mTRQ2) (UniProt Q9M2Y3 25-274)
# T1 construct: Receptor-Like Protein 44 (RLP44); Plasma membrane protein with its own signal peptide; also called RLP44-TRQ2; source: N. benthamiana epidermal leaf cells, transiently transformed, in living cells; not shown: mTRQ2, C-terminal, kept
# T1 sequence (looked up): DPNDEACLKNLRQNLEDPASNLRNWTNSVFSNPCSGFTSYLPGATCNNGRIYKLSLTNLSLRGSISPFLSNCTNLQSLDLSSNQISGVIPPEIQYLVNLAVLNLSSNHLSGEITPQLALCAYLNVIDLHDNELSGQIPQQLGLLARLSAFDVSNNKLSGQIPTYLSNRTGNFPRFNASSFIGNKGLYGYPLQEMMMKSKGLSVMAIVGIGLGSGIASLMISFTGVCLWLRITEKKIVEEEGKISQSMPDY
# B1: BRI1 Associated Kinase 1 fused to monomeric red fluorescence protein 1 (BAK1-mRFP) (receptor, UniProt Q94F62 26-615, looked up)
# chain: NAEGDALSALKNSLADPNKVLQSWDATLVTPCTWFHVTCNSDNSVTRVDLGNANLSGQLVMQLGQLPNLQYLELYSNNITGTIPEQLGNLTELVSLDLYLNNLSGPIPSTLGRLKKLRFLRLNNNSLSGEIPRSLTAVLTLQVLDLSNNPLTGDIPVNGSFSLFTPISFANTKLTPLPASPPPPISPTPPSPAGSNRITGAIAGGVAAGAALLFAVPAIALAWWRRKKPQDHFFDVPAEEDPEVHLGQLKRFSLRELQVASDNFSNKNILGRGGFGKVYKGRLADGTLVAVKRLKEERTQGGELQFQTEVEMISMAVHRNLLRLRGFCMTPTERLLVYPYMANGSVASCLRERPESQPPLDWPKRQRIALGSARGLAYLHDHCDPKIIHRDVKAANILLDEEFEAVVGDFGLAKLMDYKDTHVTTAVRGTIGHIAPEYLSTGKSSEKTDVFGYGVMLLELITGQRAFDLARLANDDDVMLLDWVKGLLKEKKLEALVDVDLQGNYKDEEVEQLIQVALLCTQSSPMERPKMSEVVRMLEGDGLAERWEEWQKEEMFRQDFNYPTHHPAVSGWIIGDSTSQIENEYPSGPR
# notes: BRI1 Associated Kinase 1 (BAK1), co-receptor kinase; also called BAK1-RFP; source: N. benthamiana epidermal leaf cells, transiently transformed, in living cells; not shown: mRFP, C-terminal, kept
# Target: T1, Receptor-Like Protein 44 fused to …
# Assay: FRET or BRET; FRET-FLIM, fluorescence lifetime of the donor RLP44-mTRQ2 (440 nm pulsed laser, TCSPC), two fusion proteins co-expressed, plasma membrane of living N. benthamiana epidermal leaf cells
# Conditions: partners not purified
binder,measurement,value
B1,fluorescence lifetime of the donor RLP44-mTRQ2 (donor alone about 3.99 ns),3.54 ns
